PMC3819817
“And” between values parts separate entries of the source, which are not always exact repeats. Equal entries are not always repeated. Where two headings read alike, the source gives them in different places.

Tests used:
[1] = target: recombinant Arabidopsis thaliana Nfu2 without the plastidial targeting sequence (Arabidopsis thaliana) (UniProt Q93W20); test: SEC
[2] = target: recombinant Arabidopsis thaliana Nfu2 without the plastidial targeting sequence (Arabidopsis thaliana) (UniProt Q93W20); test: SEC; remark: listed apart in the source

- stoichiometry N [1]: 4 and 2
- stoichiometry N [2]: 2
Substance: recombinant Arabidopsis thaliana Nfu2 without the plastidial targeting sequence (from UniProt Q93W20 73-235) (natural protein)
